{"source": "patent US11692029B2", "about": "“Therapy for glaucoma and optic neuropathy by targeting colony stimulating factors” (The Schepens Eye Research Institute, Inc., priority 2018, dated 2023)", "molecules": {"B1": {"name": "CSF2: Granulocyte-macrophage colony-stimulating factor recombinant protein; exemplary source Peprotech Recombinant Murine GM-CSF, Cat #: 315-03 (protein, UniProt P01587 18-141, looked up)", "Granulocyte-macrophage …": "APTRSPITVTRPWKHVEAIKEALNLLDDMPVTLNEEVEVVSNEFSFKKLTCVQTRLKIFEQGLRGNFTKLKGALNMTASYYQTYCPPTPETDCETQVTTYADFIDSLKTFLTDIPFECKKPGQK"}}, "key": {"[1]": {"test_system": "retinal ganglion cells (RGC)", "assay": "RGC loss (anti-Brn3a RGC counts, whole-mount retina) in microbead-induced glaucoma mice", "format": "in vivo", "settings": "MB-injected high-IOP mice, intravitreal treatment, versus vehicle/saline-treated mice", "source_text": "(§1) FIG. 3A is a line graph showing the intraocular pressure (IOP) level at baseline and up to 42 days/6 weeks post-MB injection of mice receiving either intravitreal injections of CSF1R Ab, CSF2, CSF1R Ab+CSF2 or control vehicle at D3 and D7. FIG. 3B is a bar graph showing the ratio of positive scotopic threshold response (pSTR) of glaucoma eye to contralateral normal eye. FIG. 3C is a bar graph showing the contrast sensitivity (CS) of the OMR. FIG. 3D is a bar graph showing Retinal Ganglion Cells (RGC) density of control (Ctr), vehicle (Veh) and CSF1R Ab, CSF2 and CSF2+CSF1 Ab-treated groups. Note Ctr group are the uninjured eyes. FIGS. 3E-3G are photomicrographs of Brn3a+RGCs (red) at 6 week post-injection of microbeads. In these figures (FIGS. 3A-G), ‘#’ and ‘*’ represents statistical analysis comparing to control and vehicle group, respectively. *, ** and *** represent P value <0.05, 0.01 and 0.001, respectively. #, ## and ### represent P value <0.05, <0.01 and <0.001.\n(§2) FIG. 7 is a schematic representation showing the experimental design. […]\nMicrobeads (MB) were injected into the anterior chamber of adult B6 mice to induce high IOP. The expression of CSF1/2 and their receptors was examined by immunostaining and quantitative polymerase chain reaction (qPCR) at different time points after MB injection. […]"}, "microglia": {"test_system": "microglia", "assay": "microglial activation in a glaucoma mouse model", "format": "in vivo, mice", "settings": "intravitreal injection", "source_text": "Activation of microglia plays a critical role in the progression of neurodegeneration in glaucoma. Colony stimulating factor 1 (CSF1) and colony stimulating factor 2 (CSF2) are involved in glaucomatous neuron loss by regulating microglia function."}, "visual function": {"test_system": "visual function", "assay": "visual function (contrast sensitivity and visual acuity) in microbead-induced glaucoma mice", "format": "in vivo", "settings": "MB-induced glaucomatous mice, intravitreal treatment, 4 and 6 weeks after MB injection, versus vehicle", "source_text": "as §1, with “<0.001. […] FIG. 7 is a schematic representation showing the experimental design. It was hypothesized that inhibiting CSF1 by administration of CSF1R antibody (CSF1R Ab) and/or promoting CSF2 signaling protect RGC against glaucomatous damage. Four experimental groups were proposed: following MB-injection to induce high IOP, mice received treatment of vehicle (PBS), CSF1R Ab, CSF2, or CSF1R Ab+CSF2 were studied. […]” for “<0.001.”"}, "retinal function (pSTR)": {"test_system": "retinal function (pSTR)", "assay": "positive scotopic threshold response (pSTR) in microbead-induced glaucoma mice", "format": "in vivo", "settings": "MB-induced glaucomatous mice, intravitreal treatment, 4 and 6 weeks after MB injection, versus vehicle", "source_text": "as §1, §2\nThe function of retinal ganglion cells (RGCs) can be non-invasively assessed in experimental and genetic models of glaucoma by means of variants of the ERG technique that emphasize the activity of inner retina neurons. […]"}, "[2]": {"settings": "listed as CSF2 recombinant protein"}}, "note": "Entries after “also recorded” stand apart in the source; their conditions may differ."}
{"molecule": "B1", "values": [{"measurement": "RGC loss", "setting": "[1]", "value": "decreased RGC loss; also recorded: reduced or attenuated glaucomatous RGC loss"}, {"measurement": "RGC loss", "setting": "[1]; [2]", "value": "protected the loss of retinal ganglion cells (RGCs)"}, {"measurement": "microglial activation", "setting": "microglia", "value": "significantly suppressed microglial activation"}, {"measurement": "visual function (vision contrast sensitivity and visual acuity)", "setting": "visual function", "value": "visual function increased"}, {"measurement": "visual function (vision contrast sensitivity and visual acuity)", "setting": "visual function; [2]", "value": "protected the loss of retinal ganglion cells (RGCs) and vision function"}, {"measurement": "pSTR amplitude", "setting": "retinal function (pSTR)", "value": "pSTR increased"}]}
